Results from patent US20210380653A1.

Biological target: DR5 receptor (TRAIL-R2, TNFRSF10B) (human) (UniProt O14763)
Assay: cell-based or functional assay

DR5 receptor (TRAIL-R2, TNFRSF10B) (human), sequence (O14763 56-440): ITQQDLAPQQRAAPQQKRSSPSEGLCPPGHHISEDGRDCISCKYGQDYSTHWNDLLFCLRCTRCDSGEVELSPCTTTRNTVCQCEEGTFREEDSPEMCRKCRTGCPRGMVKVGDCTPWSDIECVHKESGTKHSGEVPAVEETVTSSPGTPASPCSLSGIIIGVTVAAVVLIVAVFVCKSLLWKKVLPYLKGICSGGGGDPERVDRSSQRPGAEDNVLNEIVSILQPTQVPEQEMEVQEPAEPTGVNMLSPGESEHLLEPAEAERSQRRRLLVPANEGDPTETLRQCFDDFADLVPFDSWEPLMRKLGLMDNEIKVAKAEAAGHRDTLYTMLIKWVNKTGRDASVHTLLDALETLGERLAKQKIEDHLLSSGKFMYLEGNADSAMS

## TLY012 (PEGylated miLZ-TRAIL; PEGylated form of recombinant human TRAIL fused to a modified isoleucine zipper at the N-terminus) (ligand)
  IC50, nM (cell viability / cytotoxicity, COLO-205 cells, CellTiter-Glo): 0.0155 nM
